Measurements reported in US11634477 (dated 2023).
Positions count from the first letter of the chain named.

B1: C027 (antibody, V domains shown)
VH: EVQLVESGGGVVQPGRSLRLSCAASGFTFSSYGMHWVRQAPGKGLEWVAVISYDGSNKYYADSVKGRFTISRDNSKNTLYLQMNSLRAEDTAVYYCAKASGIYCSGGDCYSYYFDYWGQGTLVTVSS
VL: not shown
B2: C126 (antibody, V domains shown)
VH: QVQLQESGPGLVKPSETLSLSCAVSGGSIGSYFWSWIRQPPGKGLEWIGYLHYSGSTNYNPSLKSRVTISVDTSKNQFSLKLSSVTAADTAVYYCARLQWLRGAFDIWGQGTMVTVSS
VL: NFMLTQPHSVSESPGKTVTISCTGSSGSIASNYVQWYQQRPGSAPTTVINEDNQRPSGVPDRFSGSIDSSSNSASLTISGLKTEDEADYYCQSYDSSNLVFGGGTKLTVL
B3: C131 (antibody, V domains shown)
VH: QVQLVQSGSEVKKPGSSVKVSCKASGGTFSSYAFSWVRQAPGQGLEWMGRIIPILALANYAQKFQGRVTITADKSTSTAYMELSSLRSEDTAVYYCARVNQAVTTPFSMDVWGQGTTVTVSS
VL: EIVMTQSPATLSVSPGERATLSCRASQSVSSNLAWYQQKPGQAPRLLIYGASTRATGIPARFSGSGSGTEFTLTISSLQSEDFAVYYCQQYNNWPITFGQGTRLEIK
B4: C003 (antibody, V domains shown)
VH: EVQLVESGGGLIQPGGSLRLSCAASGFTVSSNYMSWVRQAPGKGLEWVSVIYSGGSTYYADSVKGRFTISRDNSKNTLYLQMNSLRAGDTAVYYCARDYGDFYFDYWGQGTLVTVSS
VL: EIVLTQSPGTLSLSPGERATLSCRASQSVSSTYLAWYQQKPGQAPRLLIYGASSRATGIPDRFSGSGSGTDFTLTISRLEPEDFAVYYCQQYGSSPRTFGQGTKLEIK
B5: C132 (antibody, V domains shown)
VH: QVQLQESGPGLVKPSGTLSLTCAVSGGSISSNNWWSCVRQPPGKGLEWIGEIYHSGSTNYNPSLKSRVTISVDKSKNQFSLKLSSVTAADTAVYYCARGGDTAMGPEYFDYWGQGTLVTVSS
VL: QSALTQPASVSGSPGQSITISCTGTSSDVGGYNYVSWYQQHPGKAPKLMIYDVSNRPSGVSNRFSGSKSGNTASLTISGLQAEDEADYYCSSYTSSSTLLFGGGTKLTVL
B6: C108 (antibody, V domains shown)
VH: QVQLQESGPGLVKPSGTLSLTCAVSGGSISSTNWWSWVRQPPGKGLEWIGEIYHTGSTNYNPSLKSRVTISVDKSKNQFSLKLSSVTAADTAVYYCVRDGGRPGDAFDIWGQGTMVTVSS
VL: B5 VL with S91N, L99R, L100V, G103T, L107V
B7: C105 (antibody, V domains shown)
VH: QVQLVESGGGLIQPGGSLRLSCAASGFTVSSNYMSWVRQAPGKGLEWVSVIYSGGSTYYADSVKGRFTISRDNSKNTLYLQMNSLRAEDTAVYYCARGEGWELPYDYWGQGTLVTVSS
VL: QSALTQPPSASGSPGQSVTISCTGTSSDVGGYKYVSWYQQHPGKAPKLMIYEVSKRPSGVPDRFSGSKSGNTASLTVSGLQAEDEADYYCSSYEGSNNFVVFGGGTKLTVL
B8: C165 (antibody, V domains shown)
VH: QVQLVQSGAEVKKPGSSVKVSCKASGGTFSSYAINWVRQAPGQGLEWMGRIIPIVGIANYAQKFQGRVTITADKSSSTAYMELSSLRSEDTAVYYCARDLLDPQLDDAFDIWGQGTMVTVSS
VL: not shown
B9: C156 (antibody, V domains shown)
VH: QVQLVESGGGVVQPGRSLRLSCAASGFTFSNYGMHWVRQAPGKGLEWVAVISYDGNNKYYADSVKGRFTISRDNSKNTLYLQMNSLRAEDTAVYYCAKDPFPLAVAGTGYFDYWGQGTLVTVSS
VL: SYELTQPPSVSVAPGQTARISCGGNNIGSKNVHWYQQKPGQAPVLVVYDDSDRPSGIPERFSGSNSGNTATLTISRVEAGDEADYYCQVWDSSSDPWVFGGGTKLTVL

What follows are binders tested against SARS-CoV RBD (SARS-CoV, UniProt P59594) (assay: ELISA).

Binder | EC50 [µg/mL]
B1 | 0.696
B2 | > 1
B3 | > 1
B4 | > 1
B5 | > 1
B6 | > 1
B7 | > 1
B8 | > 1
B9 | > 1

What follows are binders tested against SARS-CoV-2 RBD (SARS-CoV-2, UniProt P0DTC2) (assay: ELISA).

Binder | EC50 [ng/mL]
B1 | 2.65
B2 | 4.78
B3 | 1.67
B4 | 6.37
B5 | 2.92
B6 | 5.32
B7 | 5.2
B8 | 4.25
B9 | 3.32
